Several values for one entry are separate records, joined by “and”; a condition that tells them apart may be missing. Identical values can stand only once.
B1: bacteriophage λ terminase small subunit (TerS) (natural protein, UniProt P03707 1-181, looked up)
chain: MEVNKKQLADIFGASIRTIQNWQEQGMPVLRGGGKGNEVLYDSAAVIKWYAERDAEIENEKLRREVEELRQASEADLQPGTIEYERHRLTRAQADAQELKNARDSAEVVETAFCTFVLSRIAGEIASILDGLPLSVQRRFPELENRHVDFLKRDIIKAMNKAAALDELIPGLLSEYIEQSG
notes: small DNA recognition terminase subunit TerS of bacteriophage lambda; Never tested as an isolated subunit, only as part of the protomer or ring; also called small terminase
B2: bacteriophage λ terminase large subunit (TerL) (enzyme, UniProt P03708 1-641, looked up)
chain: MNISNSQVNRLRHFVRAGLRSLFRPEPQTAVEWADANYYLPKESAYQEGRWETLPFQRAIMNAMGSDYIREVNVVKSARVGYSKMLLGVYAYFIEHKQRNTLIWLPTDGDAENFMKTHVEPTIRDIPSLLALAPWYGKKHRDNTLTMKRFTNGRGFWCLGGKAAKNYREKSVDVAGYDELAAFDDDIEQEGSPTFLGDKRIEGSVWPKSIRGSTPKVRGTCQIERAASESPHFMRFHVACPHCGEEQYLKFGDKETPFGLKWTPDDPSSVFYLCEHNACVIRQQELDFTDARYICEKTGIWTRDGILWFSSSGEEIEPPDSVTFHIWTAYSPFTTWVQIVKDWMKTKGDTGKRKTFVNTTLGETWEAKIGERPDAEVMAERKEHYSAPVPDRVAYLTAGIDSQLDRYEMRVWGWGPGEESWLIDRQIIMGRHDDEQTLLRVDEAINKTYTRRNGAEMSISRICWDTGGIDPTIVYERSKKHGLFRVIPIKGASVYGKPVASMPRKRNKNGVYLTEIGTDTAKEQIYNRFTLTPEGDEPLPGAVHFPNNPDIFDLTEAQQLTAEEQVEKWVDGRKKILWDSKKRRNEALDCFVYALAALRISISRWQLDLSALLASLQEEDGAATNKKTLADYARALSGEDE
notes: large catalytic terminase subunit TerL of bacteriophage lambda; Never tested as an isolated subunit, only as part of the protomer or ring; also called large terminase

Columns and labels:
[1] = target: T1, lambda terminase holoenzyme ring (TerL•TerS2)5 (Escherichia phage Lambda, UniProt P03708); assay: ATPase assay, […] TLC, phosphorimaging; format: biochemical; conditions: labelled compound; 10 nM terminase; 50 mM Tris-HCl pH 9, 10 mM MgCl2, 60 mM NaCl, 2 mM spermidine, 37 °C
T1 construct: gene A; assembled ring of five TerL•TerS2 protomers; with Terminase small subunit
T1 sequence (P03708 1-641): B2 chain
T1 sequence (P03707 1-181 partner): B1 chain

[2] = target: T1, lambda terminase holoenzyme ring (TerL•TerS2)5; assay: cryoEM 2D class averages (conformational change); format: binding; conditions: 1 mM ATPγS; no DNA mentioned; no 3D reconstruction
[3] = target: bacteriophage λ terminase protomer (TerL•TerS2) (bacteriophage λ) (UniProt P03708); assay: SAXS; assembled terminase ring at 0.25, 0.50 and 0.80 mg/ml, 5°C; mass from the Porod-invariant volume; protomers to ring
[4] = target: bacteriophage λ terminase protomer (TerL•TerS2) (bacteriophage λ) (UniProt P03708); assay: cryo-EM 2D class averages; purified terminase ring at 0.5 mg/ml, no ligand (apo); no 3D reconstruction
[5] = target: bacteriophage λ terminase protomer (TerL•TerS2) (bacteriophage λ) (UniProt P03708); assay: native MS; charge detection mass spectrometry (CDMS) of the assembled ring, 300 mM ammonium acetate pH 8.34
[6] = target: bacteriophage λ terminase protomer (TerL•TerS2) (bacteriophage λ) (UniProt P03708); assay: cryo-EM 2D class averages; purified terminase ring at 0.5 mg/ml with 1 mM ATPγS; no 3D reconstruction
[7] = target: B2; assay: native MS; charge detection mass spectrometry (CDMS) of the terminase protomer, 200 mM ammonium acetate; conditions: both partners purified
[8] = target: the molecule itself; assay: cryo-EM 2D class averages; purified terminase ring at 0.5 mg/ml with 1 mM ATPγS; no 3D reconstruction

Nc1ncnc2c1ncn2[C@@H]1O[C@H](COP(=O)(O)OP(=O)(O)OP(=O)(O)O)[C@@H](O)[C@H]1O [ATP]
Km [1]: 0.495 ± 0.07 µM

Nc1ncnc2c1ncn2[C@@H]1O[C@H](COP(=O)(O)OP(=O)(O)OP(O)(O)=S)[C@@H](O)[C@H]1O [ATPγS]
cryoEM 2D class averages (conformational change) [2]: we imaged the λ terminase ring bound to ATP-γS, a poorly hydrolyzed ATP analog

bacteriophage λ terminase protomer (TerL•TerS2) (from UniProt P03708 1-641; P03707 1-181) (complex)
stoichiometry N [3]: 5.1 and 4.2 and 4.4 | stoichiometry N [4]: 5 | stoichiometry N [5]: 5 protomers | stoichiometry N [6]: 5

B1
binding result [7]: binds

B2
binding result [8]: binds

— publication PMC10810279, “Biophysical and structural characterization of a multifunctional viral genome packaging motor” (Nucleic Acids Research, 2023)
